For one protein, Km and kcat results are on record in article PMC11891784, “Reversible enzyme-catalysed NAD^+/NADH electrochemistry” (Chemical Science, 2025).

Substrate in this data set: NC(=O)c1ccc[n+]([C@@H]2O[C@H](COP(=O)(O)OP(=O)(O)OC[C@H]3O[C@@H](n4cnc5c(N)ncnc54)[C@H](O)[C@@H]3O)[C@@H](O)[C@H]2O)c1
The experiment in a line: mediated catalytic cyclic voltammetry. It counts as biochemical, Cupriavidus necator. To be noted: methyl viologen 60 μM as electron donor, 50 mM phosphate pH 7.5, 25 °C, N2, FdsBG 0.34 μM, turnover number calculated from simulated rate constant and Km.

Usually kcat stands for the number of substrate molecules converted per active site and unit of time at saturation.

B1: FdsBG (subcomplex of formate dehydrogenase FdsDABG) (Cupriavidus necator H16) (protein)
chain: MITITTIFVPRDSTALALGADDVARAIAREAAARNEHVRIVRNGSRGMFWLEPLVEVQTGAGRVAYGPVSAADVPGLFDAGLLQGGEHALSQGVTEEIPFLKQQERLTFARVGITDPLSLDDYRAHEGFAGLERALAMQPAEIVQEVTDSGLRGRGGAAFPTGIKWKTVLGAQSAVKYIVCNADEGDSGTFSDRMVMEDDPFMLIEGMTIAALAVGAEQGYIYCRSEYPHAIAVLESAIGIANAAGWLGDDIRGSGKRFHLEVRKGAGAYVCGEETALLESLEGRRGVVRAKPPLPALQGLFGKPTVINNVISLATVPVILARGAQYYRDYGMGRSRGTLPFQLAGNIKQGGLVEKAFGVTLRELLVDYGGGTRSGRAIRAVQVGGPLGAYLPESRFDVPLDYEAYAAFGGVVGHGGIVVFDETVDMAKQARYAMEFCAIESCGKCTPCRIGSTRGVEVMDRIIAGEQPVKHVALVRDLCDTMLNGSLCAMGGMTPYPVLSALNEFPEDFGLASNPAKAA
notes: FdsBG subcomplex without FdsA and FdsD; FdsB 55 kDa (FMN, [4Fe-4S]) and FdsG 19 kDa ([2Fe-2S]); 74 kDa in total; expressed and purified by a published procedure; with NAD-dependent formate dehydrogenase gamma subunit
Turning to B1, the Km is listed as 1.2(1) mM and the kcat is 2400 s⁻¹.
